Laboratory results: patent publication US20210163601A1 (Amgen, published 2021)
Numbering of substitutions follows the chain as printed. Each block holds one binder with its values, some of them ahead of it.

Biological target: T1, Soluble ASGR-1 (recombinant, biotinylated) (human, UniProt P07306 62-291, limits assumed, biotinylated)
T1 construct: also called recombinant, soluble ASGR-1 biotinylated protein
T1 sequence: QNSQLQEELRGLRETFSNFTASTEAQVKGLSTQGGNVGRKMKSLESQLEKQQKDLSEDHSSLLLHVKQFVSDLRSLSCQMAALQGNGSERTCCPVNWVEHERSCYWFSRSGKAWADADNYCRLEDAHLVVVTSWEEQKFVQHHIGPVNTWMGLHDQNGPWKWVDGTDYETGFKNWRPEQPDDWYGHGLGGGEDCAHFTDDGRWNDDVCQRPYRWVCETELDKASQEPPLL
Assay: limiting antigen bead FACS; biotinylated soluble ASGR-1 coated at 2.5 ng/mL on LumAvidin beads;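 further: hybridoma supernatants of ligand-competing antibodies bound to antigen-loaded beads, read by flow cytometry on an iQue Screener in calcium-containing buffer, higher fluorescence meaning stronger relative affinity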

B1: 4H6 (antibody, V domains shown)
VH: QVQLVQSGAEVKKPGASVKVSCKASGYTFTDYYLHWVRQAPGQGLEWMGWIHPNSGGTNYAQKFQGRVTMTRDTSISTAYMGLSSLRSDDTAVYYCARDGTSSFDYWGQGTLVTVSS
VL: DIQMTQSPSSVSASVGDRVTITCRASQGISRWLAWYQQKPGKAPKLLIYGASSLQSGVPSRFSGSGSGTDFTLTISSLQPEDFAIYYCQQANSFPFTFGPGTKVDIK
notes: Tested as hybridoma supernatant
- FACS Geomean: 2990

B4: 25A4 (antibody, V domains shown)
VH: QVLLVQSGAEVKRPGASVKVSCKASGYTFTNYDINWVRQATGQGLEWMGWMYPNSGNTGYAQKFQGRVTMTRNTSISTAYMELSSLRSEDTAVYYCASSSGWYYFDYWGQGTLVTVSS
VL: DIVMTQFPDSLAVSLGERATIKCKSSQSVLYSSHNNNYLAWYQQKPGQPPKLLLYWASTRESGVPDRFSGSGSGTEFTLTISSLEAEDVAVYYCQQYYSTPPTFGQGTKVEIK
notes: as for B1
- FACS Geomean: 18000

B5: 4A2 (antibody, V domains shown)
VH: B4 VH with L3Q, A9T, R13K, Y52H, M70L
VL: DIVMTQSPDSLAVSLGERATINCKSSQSILHSSNNNNYLAWFQQKPGQPPKLLLYWASTRESGVPDRFSGSGSGTDFTLTISSLQPEDVAVYYCQQYYNTPVTFGPGTKVGIK
notes: as for B1
- FACS Geomean: 16600

B6: 26C4 (antibody, V domains shown)
VH: B4 VH with L3Q, R13K, T41S, Y52N, K63R, S77N
VL: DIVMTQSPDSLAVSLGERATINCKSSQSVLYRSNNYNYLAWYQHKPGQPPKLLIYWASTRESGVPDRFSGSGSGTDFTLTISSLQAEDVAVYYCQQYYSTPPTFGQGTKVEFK
notes: as for B1
- FACS Geomean: 12000

B7: 29H8 (antibody, V domains shown)
VH: B4 VH with L3Q, K12Q, R13K, Y52N, K63R, T78A
VL: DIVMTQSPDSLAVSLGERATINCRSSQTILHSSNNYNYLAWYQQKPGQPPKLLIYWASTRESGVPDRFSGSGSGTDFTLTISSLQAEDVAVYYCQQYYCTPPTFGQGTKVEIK
notes: as for B1
- FACS Geomean: 12200

B8: 7G4 (antibody, V domains shown)
VH: QVQLVESGGGVVQPGRSLRLSCAASGFTFNNYVMHWVRQAPGKGLEWVAVIWYDGSNKYYADSVKGRFTISRDNSKNTLYLQMTSLRAEDTAVYYCAREKYSSNWYDYGMDVWGQGTTVTVSS
VL: DIQMTQSPSSLSASVGDRVTITCRASQGIRNDLGWYQQRPGKAPKRLIYAASSLQSGVPSRFSGSGSGTEFTLTISSLQPEDSATYYCLHQYSYPRTFGQGTKVEIK
notes: as for B1
- FACS Geomean: 6800

B9: 5E5 (antibody, V domains shown)
VH: B8 VH with N30S, T84N, A97T, K100V, N104G
VL: B8 VL with R39K, S83F, H90Q, Q91H, I106V
notes: as for B1
- FACS Geomean: 3280

B11: 54E9 (antibody, V domains shown)
VH: QVQLVQSGAEVKKPGASVKVSCKASGYTFNSYGISWVRLAPGQGLEWMGWISAYNGNTKNAQKLQGRVTMTTDTSTSTAYMELRSLRSDDTAVYYCARHDFWSGYYKGMDVWGQGTTVTVSS
VL: not shown
notes: as for B1
- FACS Geomean: 6490

B13: 48B12 (antibody, V domains shown)
VH: EVQLLESGGGLVQPGGSLRLSCAASGFTFSSYAMNWVRQAPGKGLEWVSAISGRGGNTFYADSVKGRFTISRDNSKNTLYLQMNSLRAEDTAVYYCAKRETYNWNYEGFDYWGQGTLVTVSS
VL: SYELTQPPSVSVSPGQTARITCSGDALPKKYAYWYQQKSGQAPVLVIYEDSKRPSGIPERFSGSSSGTMATLTISGAQVEDEADYYCNSTDSSGNHVVFGGGTKLTVL
notes: as for B1
- FACS Geomean: 27000

B16: 4B1 (antibody, V domains shown)
VH: QVQLQESGPGLVKPSETLSLTCSVSGDSISSYSWSWIRQPAGKGLEWIGRIYTSGSTNYIPSLKSRITMSVDTSKKQFSLKLSSVTAADTAVYYCARDLKSSGCLFFDYWGQGTLVTVSS
VL: DIQMTQSPSSLSASVGDRVTITCRASHTIRTYLNWYQQKPGKAPKLLIYAASSLQSGVPSRINGSGSGTDFTLTITNLQPEDFATYYCQQSYNISFTFGPGTKVDIK
notes: as for B1
- FACS Geomean: 10100

B18: 190F8 (antibody, V domains shown)
VH: QVQLVESGGGVVQPGRSLRLSCAASGFTFSTYGMHWVRQAPGKGLEWVAVIWYDGSNKNYADSVKGRFTISRDNSKNTLYLQMNSLRAEDTAVYYCARDQGVGYDGLDVWGQGTTVTVSS
VL: DIQMTQSPSSLSASVGDRVTITCRTSQGIGNYLAWFQQKPGKAPKSLLYKASSLQSGVPSKFSGSGSGTDFTLTISSLQPEDFATYYCQQYMTYPLTFGGGTKVEIK
notes: as for B1
- FACS Geomean: 13900

B23: 22G5 (antibody, V domains shown)
VH: EVQLLESGGGLVQPGGSLRLSCAASGFTFSSYAMNWVRQAPGMGLEWVSVISRSGGYTYYADSVKGRFTISRDNSKNTLYLQMNSLRAEDTAVYYCASRLAVAGSEAFDIWGQGTLVTVSS
VL: DIQMTQSPSSLSASVGDRVTITCRASQNISSYLNWYQQKQGKAPKLLIYAASSLQNGVPSRFSGRGSGTDFTLTISSLQPEDFATYYCQQSYRTPLFTFGPGTKVDFK
notes: as for B1
- FACS Geomean: 1080

B24: 6G7 (antibody, V domains shown)
VH: QVQLVESGGGVVQPGRSLRLSCAASGFTFSSYGMHWVRQTPGKGLEWVAIISYVGKNKYYADSVKGRFTISRDNSKNTLYLQMNSLRAEDTAVYYCARRGNSYGGYGMDVWGQGTTVTVSS
VL: DIQMTQSPSSRSASVGDRVTITCQASQDISNYLNWCQQKPGKALKLLIYDASTLETGVPSRFSGSGSGTDFTFTISSVQPEDIATYYCQQYDNVPITFGQGTRLEIK
notes: as for B1
- FACS Geomean: 2290

B25: 7E11 (antibody, V domains shown)
VH: QVQLVESGGGVVQPGRSLRLSCAASGFTFSSFGMHWVRQAPGKGLEWVAIIWHDGSNKYYADSVKGRFTISRDNSNNTLYLQMSSLRAEDTAVYYCARDLSMGGMDVWGQGTTVTVSS
VL: DIQMTQSPSSLSASVGDRVTIACRASQNIISYLNWYQQKPGKAPKFLIYTASSLQSGVPSRFSGSGSGTDFTLTISSLQPEDFAIYYCQQTYSTPLTFGGGTKVEIK
notes: as for B1
- FACS Geomean: 4660

Further lines, results first:

- FACS Geomean: 34000
B2: 72G9 (antibody, V domains shown)
VH: EVQLVESGGGLVKPGGSLRLSCAASGFTFSSYSMNWVRQAPGKGLEWVSSISGSSSYIYYADSVKGRFTISRDNAKNSLYLQMNSLRAEDTAVYFCARGGSRGFDPWGQGTLVTVSS
VL: B1 VL with V11L, G28S, S30T, R31S, W32Y, A34N, G50T, I85T, A91S, N92H
notes: as for B1

- FACS Geomean: 22600
B3: 56E5 (antibody, V domains shown)
VH: QVQLVQSGAEVKKPGASVKVSCQASGYTFTGYHMHWVRQAPGQGLEWMGWINPNNNATNYAQKFQGRVTMTRDTSISTAYMELRRLRSDDTAVYHCARDGTSSFDYWGQGTLVTVSS
VL: B1 VL with S30R, R31K, G50A, I85T
notes: as for B1

- FACS Geomean: 35800
B10: 75G3 (antibody, V domains shown)
VH: QVQLQQWGAGLLKPSETLSLTCAVYGGSLSGSYWSWIRQPPGKGLEWIGEINLSGSTNYNPSLKSRVTISVDTSKSQFSLTLRSVTAADTAVYYCARDYGGLDYWGQGTLVTVSS
VL: EIVLTQSPGTLSLSPGERATLSCRARQNVDSSYLAWYQQKPGQAPRLLIYGASSRATGIPDRFSGSGSGTDFTLTISRLEPEDFAVFYCQQYERSPWTFGQGTKVEIK
notes: as for B1

- FACS Geomean: 38900
B12: 194A4 (antibody, V domains shown)
VH: QVQLVQSGTEVKKPGASLKVSCKASGYTFTVYYLNWVRQAPGQGLEWMGWINPNSGGTNYAQKFQGRVTMTRDTSISTAYMELSRLRSDDTAVYYCARGYDILTGWGQGTLVTVSS
VL: EIVLTQSPGTLSLSPGERATLSCRASRGVSNIYLAWYQQKPGQAPRLLIYGASNRATGIPDRFSGSGSGTDFTLTISRLEPEDFAVYYCQHNDYSMFTFGPGTKVDIK
notes: as for B1

- FACS Geomean: 40200
B14: 184E7 (antibody, V domains shown)
VH: QVQLVQSGAEVKTPGASVKVSCRASGYTFTSYNMHWVRQVPGQGLEWMGWINPNNGGSNYTQKFQGRVTMTRDTSISTAYMELSRLRSDDTAVYYCARKFGDWGQGTLVTVSS
VL: DIQMTQSPSSRSASIGERVTITCRASQGISNYLAWIQQKPGTAPKSLIYAASSLQSGVSSRFSGSGFGTDFTITISSVQREDFATYYCQQYNGYPFTFGHGTKVDIK
notes: as for B1

- FACS Geomean: 15100
B15: 218G4 (antibody, V domains shown)
VH: QVQLVESGGGVVQPGRSLRLSCAASGFTFSSYGLHWVRQAPGKGLEWVAVIWYDGSNKYYADSVKGRFTISRDNSKNTLYLQMNSLRVEDTAVYYCANWYYYYYGMDVWGQGTTVTVSS
VL: QSVLTQPPSVSAAPGQKVTISCSGSSSNIGNNYVSWYQQLPGTAPKLLLYDSNKRPSGIPARFSGSKSGTSATLGITGLQTGDEADYYCGTWDSSLNTVVFGGGTKLTVL
notes: as for B1

- FACS Geomean: 16900
B17: 194C1 (antibody, V domains shown)
VH: B18 VH with T31S, K58E, N59H, D99N, Q100R, D105Y
VL: B18 VL with T25A, G30S, L48I, K50A, Q89L, Q90H, M92L
notes: as for B1

- FACS Geomean: 17700
B19: 197G3 (antibody, V domains shown)
VH: B18 VH with A23V, T31S, Y32H, Q100P, G101S, L107M
VL: DIQMTQSPSSLSASVGDRVTITCRASQGIGNHLAWFQQKPGKAPKSLIYAASSLQSGVPSKFSGSRSGTDFSLTISSLQPEDFATYYCQQYSNYPVTFGPGTKVDIK
notes: as for B1

- FACS Geomean: 26000
B20: 198G3 (antibody, V domains shown)
VH: B18 VH with R19K, S56T, Y80C
VL: B18 VL with T5A, N31K, S56G
notes: as for B1

- FACS Geomean: 24200
B21: 191G10 (antibody, V domains shown)
VH: B18 VH with T31S
VL: B18 VL with N31K, A51V
notes: as for B1

- FACS Geomean: 9550
B22: 191G1 (antibody, V domains shown)
VH: B18 VH with T31S, K58E, N59H, Q100R, D105Y
VL: B18 VL with T25A, G30S, L48I, K50A, Q90H, M92L
notes: as for B1
